Source: US9212226B2, “Amino acid sequences directed against CXCR4 and other GPCRs and compounds comprising the same” (Ablynx N.V., priority 2008, dated 2015)
“Also recorded” adds a separate entry of the source.

Key:
[1] = biological target: CCR5 (Homo sapiens, UniProt P51681); assay: CRE/β-galactosidase reporter gene selectivity screen, CCR5; assay type: cell-based; details: up to 2.5, forskolin 3 μM, agonist at 50-80% Emax
Method: Data are shown as means±S.E.M. (n=2-3).
HEK293T cells were maintained at 37° C. in a humidified 5% CO2, 95% air atmosphere in Dulbecco's modified Eagle's medium (DMEM) containing 2 mM L-glutamine, 50 IU/ml penicillin, 50 μg/ml streptomycin, and 10% (v/v) fetal calf serum. Jurkat cells were cultured in a humidified 5% CO2, 95% air atmosphere in a 1:1 mixture of Dulbecco's modified Eagle's medium (DMEM) and Ham's F12 medium containing 2 mM L-glutamine, 50 IU/ml penicillin, 50 μg/ml streptomycin, and 10% (v/v) fetal calf serum. […] [^125 I]-Labelling— Radiolabeling of Nanobodies with ^125I was performed using the Iodo-gen method (Pierce, Rockford, Ill.) according to the manufacturer's protocol. ^125I-labeled Nanobodies was separated from free iodine (>99%) using a Sephadex G-25 gel filtration column (Amersham Biosciences, Piscataway, N.J.). […] Competition Binding Assays— Membranes from HEK293T cells transiently expressing CXCR3 or CXCR4 were prepared 48 h after transfection as follows. Cells were washed and scraped from the cell culture dishes with ice-cold PBS containing 1 mm EDTA. The scraped cells were pelleted at 1500×g for 10 min at 4° C. […] The total protein was determined using a Bradford assay (Bio-Rad). […] Plates were counted by liquid scintillation. […] The accumulated inositol phosphates were isolated by anion exchange chromatography and counted by liquid scintillation. […]

[2] = biological target: T1, CCR7 (Homo sapiens, UniProt P32248); assay: CRE/β-galactosidase reporter gene selectivity screen, CCR7; assay type: cell-based; details: up to 2.5, forskolin 3 μM, agonist at 50-80% Emax
T1 sequence (P32248 25-378): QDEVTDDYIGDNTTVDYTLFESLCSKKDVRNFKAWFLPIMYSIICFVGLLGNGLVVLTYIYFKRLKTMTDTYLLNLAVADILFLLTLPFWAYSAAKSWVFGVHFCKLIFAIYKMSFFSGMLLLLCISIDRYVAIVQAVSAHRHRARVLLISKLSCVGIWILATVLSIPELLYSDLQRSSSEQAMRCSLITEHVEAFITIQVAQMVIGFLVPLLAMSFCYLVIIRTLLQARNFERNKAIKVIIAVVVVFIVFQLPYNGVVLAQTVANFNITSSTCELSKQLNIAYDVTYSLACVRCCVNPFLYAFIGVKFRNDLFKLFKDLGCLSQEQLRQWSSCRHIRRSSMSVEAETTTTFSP

[3] = biological target: T2, CXCR4 (Homo sapiens, UniProt P61073); assay: Inositol phosphate accumulation assay in HEK293T cells expressing CXCR4 and Gαqi5; assay type: cell-based; details: for inhibition of the CXCL12-induced accumulation of inositol phosphates: CXCL12 30 nM; for agonist activity, inositol phosphate accumulation: up to a concentration of 100 nM
Method: HEK293T cells were maintained at 37° C. in a humidified 5% CO2, 95% air atmosphere in Dulbecco's modified Eagle's medium (DMEM) containing 2 mM L-glutamine, 50 IU/ml penicillin, 50 μg/ml streptomycin, and 10% (v/v) fetal calf serum. Jurkat cells were cultured in a humidified 5% CO2, 95% air atmosphere in a 1:1 mixture of Dulbecco's modified Eagle's medium (DMEM) and Ham's F12 medium containing 2 mM L-glutamine, 50 IU/ml penicillin, 50 μg/ml streptomycin, and 10% (v/v) fetal calf serum. […] [^125 I]-Labelling— Radiolabeling of Nanobodies with ^125I was performed using the Iodo-gen method (Pierce, Rockford, Ill.) according to the manufacturer's protocol. ^125I-labeled Nanobodies was separated from free iodine (>99%) using a Sephadex G-25 gel filtration column (Amersham Biosciences, Piscataway, N.J.). […] Competition Binding Assays— Membranes from HEK293T cells transiently expressing CXCR3 or CXCR4 were prepared 48 h after transfection as follows. Cells were washed and scraped from the cell culture dishes with ice-cold PBS containing 1 mm EDTA. The scraped cells were pelleted at 1500×g for 10 min at 4° C. The pellet was washed and then resuspended in ice-cold membrane buffer (15 mM Tris, pH 7.5, 1 mM EGTA, 0.3 mM EDTA, and 2 mM MgCl2). The cell suspension was homogenized by 10 strokes at 1200 rpm using a Teflon-glass homogenizer and rotor and further subjected to three freeze-thaw cycles using liquid nitrogen. Membranes were separated by centrifugation at 40,000 g for 25 min at 4° C. The membrane pellet was washed and resuspended in ice-cold Tris-sucrose buffer (20 mM Tris, pH 7.4, and 250 mM sucrose) and frozen in liquid nitrogen. The total protein was determined using a Bradford assay (Bio-Rad). Periplasmas (1:10) or ligands were pre-incubated with membranes in binding buffer (50 mM HEPES (pH 7.4), 1 mM CaCl2, 5 mM MgCl2, 100 mM NaCl, 0.5% bovine serum albumin) supplemented with 0.5% BSA for 1 h at 22° C. before the addition of [^125I]-CXCL12 (40 pM) or [^125I]-238D2 (3 nM) or [^125I]-238D4 (3 nM) for additional 2 h at 22° C. […] Membranes were then harvested over polyethylenimine (0.5%)-treated Whatman GF/C filter plates and washed three times with ice cold binding buffer containing 500 mM NaCl. Plates were counted by liquid scintillation. Inositol Phosphate Accumulation Assay— 24 hours post transfection with pcDNA3.1-CXCR4 and pcDNA1-HA-mG {alpha} qi5 (see Verzijl et al, 2008 supra), 250.000 cells were seeded into 24-wells plates and labelled overnight using inositol-free minimal essential medium supplemented with 1 μCi myo-[2-^3H]-inositol. The next day, the cells were washed once to remove not incorporated myo-[2-^3H]-inositol. […] In agonist experiments, the cells were directly stimulated with test compounds and LiCl (10 mM) in assay buffer for 2 h at 37° C. The stimulation was stopped by aspirating the stimulation medium and adding ice-cold 10 mM formic acid. The accumulated inositol phosphates were isolated by anion exchange chromatography and counted by liquid scintillation. CRE Reporter Gene Assay— HEK239T cells were transfected with pCRE/β-galactosidase (Chen W, Shields T S, Stork P J S, Cone R D (1995) Anal Biochem 226:349-354) and plasmids (pcDEF3 or pcDNA3.1) encoding the indicated receptors. 40,000 transfected cells per well were seeded into 96 well plates and grown in DMEM supplemented with 10% fetal calf serum. The medium was replaced 32 h after transfection by serum-free DMEM supplemented with 0.5% bovine serum albumin and ligands as indicated. Following 16 h of ligand incubation, the medium was removed, the cells were lysed in 100 μl of assay buffer (100 mM sodium phosphate buffer at pH 8.0, 4 mM 2-nitrophenol-β-D-pyranoside, 0.5% Triton X-100, 2 mM MgSO4, 0.1 mM MnCl2, and 40 mM β-mercaptoethanol) and incubated at room temperature. […]
Target sequence in this assay (P61073 whole entry): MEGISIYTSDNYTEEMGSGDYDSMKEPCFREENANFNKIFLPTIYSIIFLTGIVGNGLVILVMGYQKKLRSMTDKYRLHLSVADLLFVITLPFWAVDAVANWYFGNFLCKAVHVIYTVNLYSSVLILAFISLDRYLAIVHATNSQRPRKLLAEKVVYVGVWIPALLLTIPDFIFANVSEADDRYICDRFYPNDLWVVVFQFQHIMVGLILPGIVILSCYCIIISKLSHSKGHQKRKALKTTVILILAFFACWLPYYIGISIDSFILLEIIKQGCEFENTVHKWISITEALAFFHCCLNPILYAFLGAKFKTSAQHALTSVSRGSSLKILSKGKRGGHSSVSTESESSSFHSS

[4] = biological target: T2, CXCR4; assay: Phage ELISA binding assay on CHO-CXCR4 versus CHO membranes; set-up: expressed in transfected cells; host or cells: CHO cells (membrane preparation); details: monoclonal phages, CHO-CXCR4 vs CHO membranes
Method: FIG. 2. Results from Phage ELISA (as described in example 1.5).
In order to determine binding specificity of the Nanobodies, 15 ul of the produced phage were tested in an Phage ELISA binding assay.
In short, 2 ug in 100 ul PBS of membrane expressing either CXCR4 (CHO-CXCR4) or a non relevant GPCR(CHO) were coated directly on Maxisorp microtiter plates (Nunc) overnight at 4 C. Free binding sites were blocked using 4% Marvel in PBS for 1 h. Next, 15 ul of monoclonal phages was added in 100 ul 1% Marvel PBS for 2 hours. […] Binding specificity (binding to CHO-CXCR4) was determined based on OD values compared to controls (binding to CHO).
Target sequence in this assay (P61073 with tags, fused parts or gaps isoform P61073-2 limits assumed): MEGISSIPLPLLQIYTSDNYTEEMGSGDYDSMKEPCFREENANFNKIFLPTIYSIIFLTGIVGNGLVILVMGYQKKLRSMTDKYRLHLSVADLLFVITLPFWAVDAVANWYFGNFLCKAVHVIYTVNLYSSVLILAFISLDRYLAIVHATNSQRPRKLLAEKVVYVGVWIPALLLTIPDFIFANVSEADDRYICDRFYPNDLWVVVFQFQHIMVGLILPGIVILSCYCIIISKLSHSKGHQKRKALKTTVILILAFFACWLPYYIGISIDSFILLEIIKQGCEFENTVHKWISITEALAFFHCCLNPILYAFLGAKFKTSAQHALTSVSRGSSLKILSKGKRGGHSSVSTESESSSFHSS

[5] = HEK293T-CXCR4-Gαqi5/30 nM CXCL12, mean ± S.E.M.

Sequence of CCR5 (P51681 whole entry): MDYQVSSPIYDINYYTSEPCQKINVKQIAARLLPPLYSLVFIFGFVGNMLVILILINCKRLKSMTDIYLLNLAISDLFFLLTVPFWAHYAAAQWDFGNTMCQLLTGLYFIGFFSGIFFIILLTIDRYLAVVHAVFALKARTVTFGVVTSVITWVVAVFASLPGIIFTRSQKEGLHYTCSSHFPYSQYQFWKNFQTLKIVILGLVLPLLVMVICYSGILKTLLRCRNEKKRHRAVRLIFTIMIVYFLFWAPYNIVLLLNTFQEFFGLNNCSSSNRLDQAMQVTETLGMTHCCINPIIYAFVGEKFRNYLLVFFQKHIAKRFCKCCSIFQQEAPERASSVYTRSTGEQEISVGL

Molecule | effect on agonist-induced response at CCR5 [1] | effect on agonist-induced response at CCR7 [2] | inhibition of the CXCL12-induced accumulation of inositol phosphates [3] | Imax (%), IP accumulation [3, 5] | agonist activity, inositol phosphate accumulation [3] | pKi or pIC50, IP accumulation [3, 5] | specificity toward CXCR4 expressing membrane compared to non-expressing membrane [4]
238D4: Nanobody (VHH) raised against human CXCR4, SEQ ID NO: 239 (protein, Nanobody, Nanobody constructs or fragments thereof) VHH: EVQLMESGGGLVQAGGSLRLSCAASGRTFNNYAMGWFRRAPGKEREFVAAITRSGVRSGVSAIYGDSVKDRFTISRDNAKNTLYLQMNSLKPEDTAVYTCAASAIGSGALRRFEYDYSGQGTQVTVSS | do not act as agonists or antagonists; also recorded: do not alter | do not act as agonists or antagonists; also recorded: do not alter | fully inhibited | 90 ± 5% | no intrinsic activity; also recorded: No agonist activity |  | 
238D2: Nanobody (VHH) raised against human CXCR4, SEQ ID NO: 238 (protein, Nanobody, Nanobody constructs or fragments thereof) VHH: EVQLVESGGGLVQTGGSLRLSCAASGFTFSSYAMSWVRQAPGKGLEWVSGIKSSGDSTRYAGSVKGRFTISRDNAKNMLYLQMYSLKPEDTAVYYCAKSRVSRTGLYTYDNRGQGTQVTVSS | do not act as agonists or antagonists; also recorded: do not alter | do not act as agonists or antagonists; also recorded: do not alter | fully inhibited | 86 ± 12% | no intrinsic activity; also recorded: No agonist activity | 8.51 ± 0.11 | high specificity
